These results are taken from article PMC7939288, “An apta-aggregation based machine learning assay for rapid quantification of lysozyme through texture parameters”.

The target of this data set is lysozyme (chicken (hen egg white), UniProt P00698 19-147). Nature of the data set: visible aggregation assay (photograph texture); 3 ul of 25 nM aptamer + 10 ul of lysozyme; indirect read-out, lysozyme alone gave no aggregate; lysozyme in ultrapure water, no buffer or salt stated; 25 nM aptamer (3 ul) heated at 70 C for 3 min before use; 20 C, 70-90% relative humidity, about 1 min on. The note with it: protein: commercial; 3' hairpin (predicted only).
Chain of lysozyme (P00698 19-147): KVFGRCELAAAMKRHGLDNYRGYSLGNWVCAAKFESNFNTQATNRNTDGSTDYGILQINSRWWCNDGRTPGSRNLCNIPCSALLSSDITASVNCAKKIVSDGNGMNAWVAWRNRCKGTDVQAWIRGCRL

Take ATCTACGAATTCATCAGGGCTAAAGAGTGCAGAGTTACTTAG (ssDNA) [anti-Lys aptamer (Ellington)]: the binding result is given as “binds”.
